Test results from patent US20260234242A1 (HAINAN SIMCERE ZAIMING PHARMACEUTICAL, published 2026).
One block for each binder: values may come before it.

What was measured:
[1] = biological target: T1, human CDH6 on tumor cells (OVCAR3 cells, PA-1 cells) (human, UniProt P55285 54-790); test: FACS, PA-1 cells
T1 sequence: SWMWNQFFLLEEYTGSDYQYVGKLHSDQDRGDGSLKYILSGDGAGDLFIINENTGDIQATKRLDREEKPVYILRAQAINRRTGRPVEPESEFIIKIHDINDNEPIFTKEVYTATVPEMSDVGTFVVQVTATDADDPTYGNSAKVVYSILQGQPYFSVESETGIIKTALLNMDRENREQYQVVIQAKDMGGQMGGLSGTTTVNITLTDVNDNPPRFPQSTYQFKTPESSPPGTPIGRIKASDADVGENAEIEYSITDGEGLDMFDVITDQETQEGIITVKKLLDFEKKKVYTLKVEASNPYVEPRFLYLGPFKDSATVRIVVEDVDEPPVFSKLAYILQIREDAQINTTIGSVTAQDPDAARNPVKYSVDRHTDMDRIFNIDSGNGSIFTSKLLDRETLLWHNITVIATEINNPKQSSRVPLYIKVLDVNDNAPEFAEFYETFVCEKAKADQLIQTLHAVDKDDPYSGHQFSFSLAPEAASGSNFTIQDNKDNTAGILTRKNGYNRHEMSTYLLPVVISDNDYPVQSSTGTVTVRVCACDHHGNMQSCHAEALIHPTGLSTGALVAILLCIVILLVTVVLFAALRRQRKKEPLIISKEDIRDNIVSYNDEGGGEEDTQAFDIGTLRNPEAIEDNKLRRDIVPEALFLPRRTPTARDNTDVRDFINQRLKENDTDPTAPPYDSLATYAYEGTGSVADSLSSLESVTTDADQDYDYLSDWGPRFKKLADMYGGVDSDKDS
Method: OVCAR3 cells with high expression of CDH6 and PA-1 cells with moderate expression of CDH6 were used to detect the binding activity of the antibodies to the cells. […] The cells were washed once with PBS, counted, resuspended to 2×10⁶ cells/mL in an FACS buffer (PBS+2% FBS), and then added to a 96-well plate at 50 μL/well. The chimeric antibodies were diluted with FACS buffer (PBS+2% FBS) and added to the 96-well plate at 50 μL/well, and the plate was incubated at 4° C. for 1 h. […] The dilution was added to the 96-well plate at 50 μL/well, and the plate was incubated at 4° C. for 1 h. After the plates were centrifuged and washed 2 times with PBS, the cells were resuspended in an FACS buffer. The mean fluorescence intensity (MFI) was measured using FACS Canton II (BD). Analysis was performed by the GraphPad Prism software, data were fitted, and EC50 values were calculated. The chimeric antibodies tested had strong binding to both OVCAR3 cells and PA-1 cells.
According to the above sequences, heavy chain (HC) and light chain (LC) plasmids were constructed (the nucleic acid sequences encoding the VH and VL of the antibodies were recombined into an expression vector carrying a signal peptide (SEQ ID NO: 132, […]) and a heavy chain constant region/light chain constant region sequence to obtain recombinant plasmids expressing VH-CH1-Fc/VL-CL). According to the expression and purification methods in Example 2, the hCDH6-14 humanized antibodies were obtained, and the binding activity of the humanized antibodies was detected by ELISA and FACS (see 2.2 and 2.3 for the method).

[2] = biological target: T2, human CDH6 with EC3 removed, on HEK293T cells (HEK293T-hCDH6-EC3 deletion) (human, UniProt P55285 54-790); test: FACS, HEK293T-hCDH6-EC3 deletion cells
T2 construct: Signal peptide not removed here
T2 sequence: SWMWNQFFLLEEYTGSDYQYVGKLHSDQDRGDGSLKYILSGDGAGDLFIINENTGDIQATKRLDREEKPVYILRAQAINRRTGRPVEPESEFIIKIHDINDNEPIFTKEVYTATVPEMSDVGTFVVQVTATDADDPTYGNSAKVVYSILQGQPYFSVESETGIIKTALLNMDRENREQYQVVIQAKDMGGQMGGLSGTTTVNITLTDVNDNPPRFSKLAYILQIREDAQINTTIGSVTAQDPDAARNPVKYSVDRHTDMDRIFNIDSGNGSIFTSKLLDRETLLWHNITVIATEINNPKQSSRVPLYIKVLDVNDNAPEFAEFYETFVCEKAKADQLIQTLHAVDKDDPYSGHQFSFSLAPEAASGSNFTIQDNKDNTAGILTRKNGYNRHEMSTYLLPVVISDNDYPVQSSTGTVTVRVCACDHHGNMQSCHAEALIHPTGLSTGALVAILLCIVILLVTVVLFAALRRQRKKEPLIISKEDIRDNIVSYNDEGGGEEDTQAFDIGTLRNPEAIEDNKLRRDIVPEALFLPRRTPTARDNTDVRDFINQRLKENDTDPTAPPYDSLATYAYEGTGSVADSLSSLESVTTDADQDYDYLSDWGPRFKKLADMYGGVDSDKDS

[3] = biological target: T3, human CDH6 with EC2 removed, on HEK293T cells (HEK293T-hCDH6-EC2 deletion) (human, UniProt P55285 54-790); test: FACS, HEK293T-hCDH6-EC2 deletion cells
T3 construct: Signal peptide not removed here
T3 sequence: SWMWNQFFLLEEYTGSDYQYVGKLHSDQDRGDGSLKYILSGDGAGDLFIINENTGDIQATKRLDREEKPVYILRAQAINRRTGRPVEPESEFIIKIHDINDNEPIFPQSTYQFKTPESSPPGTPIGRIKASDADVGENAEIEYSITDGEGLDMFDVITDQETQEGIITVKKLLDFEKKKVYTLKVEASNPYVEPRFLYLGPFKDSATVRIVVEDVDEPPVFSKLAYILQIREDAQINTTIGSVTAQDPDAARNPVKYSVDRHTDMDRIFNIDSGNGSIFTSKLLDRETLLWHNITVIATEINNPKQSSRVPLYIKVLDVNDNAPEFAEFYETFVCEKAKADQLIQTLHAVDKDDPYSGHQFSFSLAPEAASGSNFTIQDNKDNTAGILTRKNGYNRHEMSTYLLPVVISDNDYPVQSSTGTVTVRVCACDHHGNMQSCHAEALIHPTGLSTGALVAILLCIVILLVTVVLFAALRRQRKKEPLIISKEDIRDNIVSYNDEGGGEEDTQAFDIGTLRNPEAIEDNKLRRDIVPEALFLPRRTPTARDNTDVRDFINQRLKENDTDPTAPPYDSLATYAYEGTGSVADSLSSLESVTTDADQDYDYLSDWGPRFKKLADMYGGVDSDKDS

EC50 [1]: 270 pM | Max MFI [1]: 4260 MFI
B1: CHI-CDH6-14 (antibody, human IgG1, kappa, V domains shown)
VH: QIQLQQSGPELVKPGTSVKISCKASGYTFTDNYINWVRQRPGQGLEWIGWIYPGTGNSYYNEKFKGKATLTVDTSSSTAYMQFSSLTSEDSAVYLCASSYGDSFDYWGQGTTLTVSS
VL: DIQMTQTTSSLSASLGNRVTISCRASQDIRNYLNWYQQKPDGTFKLLISYTSRLHSGVPSRFSGSGSGTDYSLTVSNLEPEDIATYYCQQYSQLPWTFGGGSRLEIKR
notes: also called CHI-hCDH6-14; CH1-CDH6-14

binding result [2]: no binding
B2: CHI-CDH6-12 (antibody, human IgG1, kappa, V domains shown)
VH: EVNLVESGGGLVQPGDSLTLSCSASGFTFTDYYMSWVRQFPGKALEWLALIRNKANSYTTEYSASVKGRFTISRDNSQSILYLQMNALRAEDSATYYCARDSYYSHDGFAYWGQGTLVTVSA
VL: DIVLTQSPASLAVSLGQRATISCRASKSVSTSSYTYMHWYQQKPGQPPKLLIKFASYLESGVPARFSGSGSGTDFTLNIHPVEEEDAATYYCQHSREFPFTFGTGTKLEIKR
notes: also called CH1-CDH6-12; chimeric antibody of murine CDH6-12

binding result [3]: no binding
B3: CHI-CDH6-4 (antibody, human IgG1, kappa, V domains shown)
VH: QVQLQQSGPELVKPGASVKISCKASGYAFSNFWMNWVKQRPGKGLEWIGWIYPGDGDTNYNGKFKDKATLTADKSSSTAYIQLSSLTSEDSAVYFCARLYDAWGFFDYWGQGTTLTVSS
VL: QIVLTQSPAIMSASPGQKVTITCSASSSVNYMHWYQQKLGSSPKLWIYDKSKLAPGVPARFSGSGSGTSYSLTISSMEAEDAASYFCHQWSSYPPMTFGGGTKLEIKR
notes: also called CH1-CDH6-4; chimeric antibody of murine CDH6-4
